Measurements taken from patent US20260167699A1 (Chugai, published 2026).

B1: GpH7-A5/GpH7-B3 variant Y300_06M/GpL16-k0 (antibody, human IgG1, kappa)
heavy 1: not shown
heavy 2: not shown
light: DIVMTQSPLSLPVTPGEPASISCQASESLVHSNRNTYLHWYLQKPGQSPQLLIYKVSNRFSGVPDRFSGSGSGTDFTLKISRVEAEDVGVYYCSQNTHVPPTFGQGTKVEIERTVAAPSVFIFPPSDEQLKSGTASVVCLLNNFYPREAKVQWKVDNALQSGNSQESVTEQDSKDSTYSLSSTLTLSKADYEKHKVYACEVTHQGLSSPVTKSFNRGEC
notes: copies: 1 + 1 + 2
B2: GpH7-A5/GpH7-B3 variant Y300_07I/GpL16-k0 (antibody, human IgG1, kappa)
heavy 1: not shown
heavy 2: not shown
light: DIVMTQSPLSLPVTPGEPASISCQASESLVHSNRNTYLHWYLQKPGQSPQLLIYKVSNRFSGVPDRFSGSGSGTDFTLKISRVEAEDVGVYYCSQNTHVPPTFGQGTKVEIERTVAAPSVFIFPPSDEQLKSGTASVVCLLNNFYPREAKVQWKVDNALQSGNSQESVTEQDSKDSTYSLSSTLTLSKADYEKHKVYACEVTHQGLSSPVTKSFNRGEC
notes: copies: 1 + 1 + 2
B3: GpH7-A5/GpH7-B3 variant Y300_08L/GpL16-k0 (antibody, human IgG1, kappa)
heavy 1: not shown
heavy 2: not shown
light: DIVMTQSPLSLPVTPGEPASISCQASESLVHSNRNTYLHWYLQKPGQSPQLLIYKVSNRFSGVPDRFSGSGSGTDFTLKISRVEAEDVGVYYCSQNTHVPPTFGQGTKVEIERTVAAPSVFIFPPSDEQLKSGTASVVCLLNNFYPREAKVQWKVDNALQSGNSQESVTEQDSKDSTYSLSSTLTLSKADYEKHKVYACEVTHQGLSSPVTKSFNRGEC
notes: copies: 1 + 1 + 2
B4: GpH7-A5/GpH7-B3 variant Y300_09D/GpL16-k0 (antibody, human IgG1, kappa)
heavy 1: not shown
heavy 2: not shown
light: DIVMTQSPLSLPVTPGEPASISCQASESLVHSNRNTYLHWYLQKPGQSPQLLIYKVSNRFSGVPDRFSGSGSGTDFTLKISRVEAEDVGVYYCSQNTHVPPTFGQGTKVEIERTVAAPSVFIFPPSDEQLKSGTASVVCLLNNFYPREAKVQWKVDNALQSGNSQESVTEQDSKDSTYSLSSTLTLSKADYEKHKVYACEVTHQGLSSPVTKSFNRGEC
notes: copies: 1 + 1 + 2
B5: GpH7-A5/GpH7-B3 variant Y300_10E/GpL16-k0 (antibody, human IgG1, kappa)
heavy 1: not shown
heavy 2: not shown
light: DIVMTQSPLSLPVTPGEPASISCQASESLVHSNRNTYLHWYLQKPGQSPQLLIYKVSNRFSGVPDRFSGSGSGTDFTLKISRVEAEDVGVYYCSQNTHVPPTFGQGTKVEIERTVAAPSVFIFPPSDEQLKSGTASVVCLLNNFYPREAKVQWKVDNALQSGNSQESVTEQDSKDSTYSLSSTLTLSKADYEKHKVYACEVTHQGLSSPVTKSFNRGEC
notes: copies: 1 + 1 + 2
B6: GpH7-A5/GpH7-B3 variant Y300_11K/GpL16-k0 (antibody, human IgG1, kappa)
heavy 1: not shown
heavy 2: not shown
light: DIVMTQSPLSLPVTPGEPASISCQASESLVHSNRNTYLHWYLQKPGQSPQLLIYKVSNRFSGVPDRFSGSGSGTDFTLKISRVEAEDVGVYYCSQNTHVPPTFGQGTKVEIERTVAAPSVFIFPPSDEQLKSGTASVVCLLNNFYPREAKVQWKVDNALQSGNSQESVTEQDSKDSTYSLSSTLTLSKADYEKHKVYACEVTHQGLSSPVTKSFNRGEC
notes: copies: 1 + 1 + 2
B7: GpH7-A5/GpH7-B3 variant Y300_13S/GpL16-k0 (antibody, human IgG1, kappa)
heavy 1: not shown
heavy 2: not shown
light: DIVMTQSPLSLPVTPGEPASISCQASESLVHSNRNTYLHWYLQKPGQSPQLLIYKVSNRFSGVPDRFSGSGSGTDFTLKISRVEAEDVGVYYCSQNTHVPPTFGQGTKVEIERTVAAPSVFIFPPSDEQLKSGTASVVCLLNNFYPREAKVQWKVDNALQSGNSQESVTEQDSKDSTYSLSSTLTLSKADYEKHKVYACEVTHQGLSSPVTKSFNRGEC
notes: copies: 1 + 1 + 2
B8: GpH7-A5/GpH7-B3 variant Y300_14T/GpL16-k0 (antibody, human IgG1, kappa)
heavy 1: not shown
heavy 2: not shown
light: DIVMTQSPLSLPVTPGEPASISCQASESLVHSNRNTYLHWYLQKPGQSPQLLIYKVSNRFSGVPDRFSGSGSGTDFTLKISRVEAEDVGVYYCSQNTHVPPTFGQGTKVEIERTVAAPSVFIFPPSDEQLKSGTASVVCLLNNFYPREAKVQWKVDNALQSGNSQESVTEQDSKDSTYSLSSTLTLSKADYEKHKVYACEVTHQGLSSPVTKSFNRGEC
notes: copies: 1 + 1 + 2
B9: GpH7-A5/GpH7-B3 variant Y300_16H/GpL16-k0 (antibody, human IgG1, kappa)
heavy 1: not shown
heavy 2: not shown
light: DIVMTQSPLSLPVTPGEPASISCQASESLVHSNRNTYLHWYLQKPGQSPQLLIYKVSNRFSGVPDRFSGSGSGTDFTLKISRVEAEDVGVYYCSQNTHVPPTFGQGTKVEIERTVAAPSVFIFPPSDEQLKSGTASVVCLLNNFYPREAKVQWKVDNALQSGNSQESVTEQDSKDSTYSLSSTLTLSKADYEKHKVYACEVTHQGLSSPVTKSFNRGEC
notes: copies: 1 + 1 + 2

biological target: T1, FcγRIIIa (human, UniProt P08637 17-208); assay: SPR (Biacore);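 further: antibody variants captured on an SPR sensor chip, with FcγRIIIa passed over as analyte in HBS-EP+ buffer at 25 °C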
T1 construct: extracellular domain; also called 3a; FcγRIIIa extracellular domain
T1 sequence (P08637 other isoform, or with tags, fused parts or gaps): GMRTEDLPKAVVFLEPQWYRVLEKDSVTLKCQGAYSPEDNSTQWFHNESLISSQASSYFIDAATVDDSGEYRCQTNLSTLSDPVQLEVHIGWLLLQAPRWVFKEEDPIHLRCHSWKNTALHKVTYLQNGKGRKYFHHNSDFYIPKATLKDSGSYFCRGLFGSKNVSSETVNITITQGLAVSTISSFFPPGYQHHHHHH

Compared with B1, B2 is lower in “He/Con 3a” value: 106 % of GpH7-A5/GpH7-B3/GpL16-k0 for the first, 103 % of GpH7-A5/GpH7-B3/GpL16-k0 for the second.

Going from B3 to B4, the “He/Con 3a” value falls from 114 % of GpH7-A5/GpH7-B3/GpL16-k0 to 104 % of GpH7-A5/GpH7-B3/GpL16-k0.

First: B5
Second: B6
The “He/Con 3a” value of the first is higher: 113 % of GpH7-A5/GpH7-B3/GpL16-k0 for the first, 63.7 % of GpH7-A5/GpH7-B3/GpL16-k0 for the second.

First: B7
Second: B8
The “He/Con 3a” value of the first is lower: 80.3 % of GpH7-A5/GpH7-B3/GpL16-k0 for the first, 92.8 % of GpH7-A5/GpH7-B3/GpL16-k0 for the second.

In the case of B9, the “He/Con 3a” value is reported as 102 % of GpH7-A5/GpH7-B3/GpL16-k0.
